The test system of the data set is ATP. Put plainly: switch fluorescence ratio, 500 uM ATP over buffer (Cy3 cluster intensity, sum of 5 cycles each) (fold (ratio)); higher = stronger signal-on switching upon ATP binding; sequences stand for … in TCGTCGGCAGCGTCAGATGTGTATAAGAGACAGTTTTTTTTTTTTTTTTTTTTTTTTT…TC. The settings on record: aptamer strand: ATP DNA aptamer (quencher-CACCTGGGGGAGTATTGCGGAGGAAGG + anchor), 100 nM annealed; ATP concentration: 500 uM. The gist of the method:
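Values give the fluorescence ratio for each switch-domain sequence, averaged from per-cluster ratios of summed target-cycle to summed buffer-cycle Cy3 intensity. The Cy3-labelled switching-strand clusters sat on a modified Illumina MiSeq flow-cell, were annealed to 100 nM quencher-labelled ATP aptamer, and were imaged in selection buffer, then after 15 min with 500 uM ATP at 22 °C. Five cycles ran with NaOH stripping and re-annealing between them, and clusters outside 100-1000 RFU were excluded.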

± gives the standard deviation of the averaged measurements.
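Also: ATP exposure 15 min at 22 °C before imaging.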

In the case of TTTATATATT, the switch fluorescence ratio came to 1.01 ± 0.028.

Take TCGCCGGGCG: the switch fluorescence ratio is 0.993 ± 0.0075.

In the case of TTTTAGTAGG, the switch fluorescence ratio turned out to be 1.04 ± 0.091.

As to TCGGACTGAG, the switch fluorescence ratio was 0.968 ± 0.029.

In the case of CCTGGTAAGT, the switch fluorescence ratio was 1.04 ± 0.051.

Take TTTTTGTCCG: the switch fluorescence ratio was 1.02 ± 0.042.

On to GCTGGCGGAT, for which the switch fluorescence ratio was determined as 1.01 ± 0.041.

For the sequence TTAACGGGGA, the switch fluorescence ratio is 1.02 ± 0.017.

In the case of TGTAAGGGTT, the switch fluorescence ratio came out at 0.994 ± 0.027.

Consider TCGGGGGTTG, for which the switch fluorescence ratio was 0.996 ± 0.056.

Consider AATGCAACTT, for which the switch fluorescence ratio came out at 1.01 ± 0.032.

On to ATAATATACT, for which the switch fluorescence ratio came to 1.04 ± 0.055.

As to TTGGGAGCGT, the switch fluorescence ratio was 1.01 ± 0.017.

As for GAGGGATTCG, the switch fluorescence ratio was determined as 1.01 ± 0.014.

On to GTTGCTGTCA, for which the switch fluorescence ratio amounted to 1.06 ± 0.043.

With AGGGCTAAAT, the switch fluorescence ratio came out at 0.995 ± 0.025.

As for TCTGAGATAT, the switch fluorescence ratio is 0.9872 ± 0.0028.

Consider TTGCCGGTAT, for which the switch fluorescence ratio was 1.05 ± 0.021.

For TTGAGATCCG, the switch fluorescence ratio is 0.986 ± 0.053.

On to AGGTTAAGGT, for which the switch fluorescence ratio turned out to be 1.01 ± 0.02.

Turning to AGAGTGTAGG, the switch fluorescence ratio was 1.08 ± 0.034.

With GTAATGTATC, the switch fluorescence ratio amounted to 1.03 ± 0.046.

Regarding ATGGGGGGGG, the switch fluorescence ratio turned out to be 1.01 ± 0.039.

Consider CCCTGGGGGT, for which the switch fluorescence ratio came to 1.15 ± 0.067.

Consider AGGTGTTTAC, for which the switch fluorescence ratio is 1.01 ± 0.011.

TAGTTGGCAG: the switch fluorescence ratio is 0.9773 ± 0.0054.

As for TACAAGAATA, the switch fluorescence ratio was 0.986 ± 0.03.

As to ATTCTAACGA, the switch fluorescence ratio was 1.032 ± 0.0036.

With ACGGTGGCGT, the switch fluorescence ratio worked out at 1.02 ± 0.016.

With TATATTTGGT, the switch fluorescence ratio came out at 0.996 ± 0.039.

As to CAGGGCAAGC, the switch fluorescence ratio stood at 1.36 ± 0.057.

Turning to AGGGAAAGCT, the switch fluorescence ratio is 1.12 ± 0.2.

For the sequence GCTAAAATGG, the switch fluorescence ratio was 0.9916 ± 0.0076.

In the case of GGTTTCAGTG, the switch fluorescence ratio came to 1.01 ± 0.025.

Consider TACTATACGT, for which the switch fluorescence ratio was found to be 1.276 ± 0.007.

Turning to CCATTATGGT, the switch fluorescence ratio worked out at 1.01 ± 0.03.

With TTGATTAAAT, the switch fluorescence ratio came to 0.9575 ± 0.0089.

On to GTTTGGGAAC, for which the switch fluorescence ratio amounted to 1.02 ± 0.019.

For TTCAAGGCAG, the switch fluorescence ratio was 1.03 ± 0.043.

In the case of TTATTTAGAG, the switch fluorescence ratio was found to be 0.985 ± 0.027.

Take TTTAGTGTGG: the switch fluorescence ratio stood at 1.02 ± 0.044.

With AAGATATCTG, the switch fluorescence ratio was determined as 1.01 ± 0.032.

As to CTGTTGGAAT, the switch fluorescence ratio worked out at 0.978 ± 0.025.

GGGGGACTGA: the switch fluorescence ratio worked out at 0.991 ± 0.03.

On to GTTTTAAGTG, for which the switch fluorescence ratio was 0.981 ± 0.034.

With TAAGTTGGGG, the switch fluorescence ratio was 0.995 ± 0.02.

For the sequence GACAAAGCGG, the switch fluorescence ratio was 1.07 ± 0.041.

As for CTGCGGGGAG, the switch fluorescence ratio came out at 1.03 ± 0.037.

TTACCTACTT: the switch fluorescence ratio was 1.17 ± 0.12.

In the case of TATACGTTTC, the switch fluorescence ratio was 1.04 ± 0.028.

Turning to GGGTTTTTTA, the switch fluorescence ratio is 0.988 ± 0.022.

With GTATTCTCCA, the switch fluorescence ratio came to 1.018 ± 0.0043.

Regarding ATTATAGCGG, the switch fluorescence ratio was determined as 0.9984 ± 0.0073.

Turning to CGGGTAGCG, the switch fluorescence ratio was found to be 0.969 ± 0.013.

GGACATGGCG: the switch fluorescence ratio was found to be 0.943 ± 0.019.

Regarding TAAACGTCGA, the switch fluorescence ratio worked out at 0.962 ± 0.065.

Regarding ATTGGGTAGG, the switch fluorescence ratio came out at 0.993 ± 0.025.

In the case of TTATCGCTTA, the switch fluorescence ratio turned out to be 1.04 ± 0.098.

Turning to TAACAGTGAG, the switch fluorescence ratio was determined as 0.964 ± 0.021.

Take TCATCGGGGA: the switch fluorescence ratio worked out at 1.01 ± 0.028.

For the sequence ATCATTTATT, the switch fluorescence ratio amounted to 1.01 ± 0.042.

For the sequence CTGAAGGATC, the switch fluorescence ratio came to 1.05 ± 0.035.

For the sequence TTATTTAAAT, the switch fluorescence ratio amounted to 1 ± 0.04.

Consider GGTGCGGTTG, for which the switch fluorescence ratio came to 0.9975 ± 0.00035.

With TTGTGAAGCA, the switch fluorescence ratio turned out to be 1.025 ± 0.0054.

On to AACGTTAGGT, for which the switch fluorescence ratio was found to be 0.9704 ± 0.0022.

On to TATCGCTCAT, for which the switch fluorescence ratio was found to be 0.9765 ± 0.0073.

For ATGGGTTATG, the switch fluorescence ratio stood at 0.999 ± 0.016.

As to TACCCGACTT, the switch fluorescence ratio was found to be 1.13 ± 0.009.

GCAGTCCGAG: the switch fluorescence ratio stood at 1.07 ± 0.043.

Take GTATTTGGGC: the switch fluorescence ratio turned out to be 0.994 ± 0.012.

As to TTTCCTATTG, the switch fluorescence ratio turned out to be 1.01 ± 0.027.

With TAGCCGGCGT, the switch fluorescence ratio is 1.01 ± 0.013.

Take GTTAGGAGAA: the switch fluorescence ratio came to 0.9807 ± 0.0092.

Take ATGTTTGTCT: the switch fluorescence ratio amounted to 0.97 ± 0.039.

Regarding TTAAGAGGTG, the switch fluorescence ratio was determined as 1.09 ± 0.034.

For CGGCGGTCGG, the switch fluorescence ratio is 0.9808 ± 0.0076.

As for TTTTATTGAA, the switch fluorescence ratio worked out at 1 ± 0.03.

As for TTTGGGGTGG, the switch fluorescence ratio was 0.974 ± 0.031.

With ATGGATGAGA, the switch fluorescence ratio was 0.989 ± 0.03.

For the sequence TTTTTGGGAC, the switch fluorescence ratio turned out to be 1.03 ± 0.045.

With TGGCGGGGGT, the switch fluorescence ratio stood at 0.981 ± 0.012.

As for GGGCGCGGGG, the switch fluorescence ratio is 1.01 ± 0.023.

Regarding TATAATTGGT, the switch fluorescence ratio worked out at 0.9616 ± 0.007.

Regarding CGGCTAGGTC, the switch fluorescence ratio was 1.03 ± 0.012.

With AGTCATGTGC, the switch fluorescence ratio was 0.979 ± 0.038.

With TTGGTTTCCC, the switch fluorescence ratio came out at 1.01 ± 0.02.

Take TATTTCTTTG: the switch fluorescence ratio was 0.979 ± 0.055.

As for GTTGGGAAGA, the switch fluorescence ratio was 1.01 ± 0.034.

Turning to AGAAGTGCGG, the switch fluorescence ratio came to 0.984 ± 0.032.

As to GCACATAGGG, the switch fluorescence ratio stood at 1.02 ± 0.011.

On to TTGGGGCATG, for which the switch fluorescence ratio worked out at 0.971 ± 0.011.

ATAATGGGTA: the switch fluorescence ratio came to 0.97 ± 0.025.

With TTGTGGGTGT, the switch fluorescence ratio came out at 1.004 ± 0.0082.

As to AGGCTTGGGT, the switch fluorescence ratio came out at 0.982 ± 0.024.

For TTGATGATAT, the switch fluorescence ratio amounted to 0.986 ± 0.019.

Take ATCATTGCTG: the switch fluorescence ratio turned out to be 0.949 ± 0.056.

Turning to CTAGGGCGCT, the switch fluorescence ratio amounted to 0.983 ± 0.032.

Consider GTGGATATTT, for which the switch fluorescence ratio was 0.986 ± 0.015.

With CGTTAAATGT, the switch fluorescence ratio came out at 0.998 ± 0.022.

For the sequence CGGTATAGTA, the switch fluorescence ratio is 0.983 ± 0.032.

In the case of GCGAGACCAG, the switch fluorescence ratio amounted to 1.64 ± 0.051.

With AGTGTCTGC, the switch fluorescence ratio is 0.97 ± 0.087.

ATAGGAAATA: the switch fluorescence ratio was determined as 1.06 ± 0.035.

For GGGGGCAGGG, the switch fluorescence ratio amounted to 0.998 ± 0.065.

As for AAGGAGGGGA, the switch fluorescence ratio was 0.978 ± 0.02.

Turning to TACAGTTACC, the switch fluorescence ratio was found to be 1.31 ± 0.11.

Take CAATGGGCGA: the switch fluorescence ratio was 0.993 ± 0.011.

For the sequence TGAATTTCTG, the switch fluorescence ratio was 1.029 ± 0.0094.

On to CGAAGCATTT, for which the switch fluorescence ratio worked out at 3.73 ± 0.14.

Take AAGAGTGGGG: the switch fluorescence ratio was determined as 1.02 ± 0.049.

In the case of TTTTTTTTGG, the switch fluorescence ratio worked out at 0.998 ± 0.032.

In the case of ACTATAGTAT, the switch fluorescence ratio is 1 ± 0.057.

On to GGTGCGACTC, for which the switch fluorescence ratio worked out at 1.04 ± 0.05.

On to TGGAGTGGAG, for which the switch fluorescence ratio is 0.989 ± 0.023.

CTTAGGGGGC: the switch fluorescence ratio worked out at 1.01 ± 0.051.

Take ATGCAATTTT: the switch fluorescence ratio turned out to be 1.017 ± 0.0034.

With TAGGGGATTT, the switch fluorescence ratio came to 1 ± 0.042.

For the sequence CGCTTTATGT, the switch fluorescence ratio was 1.06 ± 0.18.

For TATGAAAGGA, the switch fluorescence ratio came out at 1.011 ± 0.0047.
